# Source: PMC7954794, “Protein context shapes the specificity of SH3 domain-mediated interactions in vivo” (Nature Communications, 2021)
# Tested on: Abp1 PPIs
# Experiment: DHFR-PCA of Abp1 SH3-swapped baits (Fig. 2B-D, S2C, S2F);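 on Protein-protein interaction distance between Abp1 SH3-swapped baits, to ABP1: Euclidean distance between DHFR-PCA score profiles of the baits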;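 on Protein-protein interaction distance between Abp1 SH3-swapped baits, to BEM1-2: Euclidean distance between DHFR-PCA score profiles of the baits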;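 on Protein-protein interaction distance between Abp1 SH3-swapped baits, to BOI1: Euclidean distance between DHFR-PCA score profiles of the baits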;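 on Protein-protein interaction distance between Abp1 SH3-swapped baits, to BZZ1-1: Euclidean distance between DHFR-PCA score profiles of the baits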
# Assay type: cell-based, Saccharomyces cerevisiae
# Procedure, shortened: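 Interactions were scored by DHFR protein-fragment complementation. DHFR F[1,2]-tagged Abp1 strains, whose SH3 was swapped for yeast or human ortholog domains, were crossed on YPD at 30 °C for 48 h with a 1536-format array of 575 prey-DHFR F[3] strains and 40 negatives, giving four replicates per pair. PCA selection lasted 4 days after double diploid selection.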
molecule,measurement,setting,value
"YBL039C (protein, UniProt P28274 1-579, looked up) CTP synthase 1: MKYVVVSGGVISGIGKGVLASSTGMLMKTLGLKVTSIKIDPYMNIDAGTMSPLEHGECFVLDDGGETDLDLGNYERYLGVTLTKDHNITTGKIYSHVIAKERKGDYLGKTVQIVPHLTNAIQDWIERVAKIPVDDTGMEPDVCIIELGGTVGDIESAPFVEALRQFQFKVGKENFALIHVSLVPVIHGEQKTKPTQAAIKGLRSLGLVPDMIACRCSETLDKPTIDKIAMFCHVGPEQVVNVHDVNSTYHVPLLLLEQKMIDYLHARLKLDEISLTEEEKQRGLELLSKWKATTGNFDESMETVKIALVGKYTNLKDSYLSVIKALEHSSMKCRRKLDIKWVEATDLEPEAQESNKTKFHEAWNMVSTADGILIPGGFGVRGTEGMVLAARWARENHIPFLGVCLGLQIATIEFTRSVLGRKDSHSAEFYPDIDEKNHVVVFMPEIDKETMGGSMRLGLRPTFFQNETEWSQIKKLYGDVSEVHERHRHRYEINPKMVDELENNGLIFVGKDDTGKRCEILELKNHPYYIATQYHPEYTSKVLDPSKPFLGLVAASAGILQDVIEGKYDLEAGENKFNF",medrep (log2 median colony size normalized to plate background),"Fig2B, bait ABP1, label = prey, Replicates 4",3.877
"ABP1: yeast SH3-containing protein; SH3-deleted (D) or gene-deleted (KO) strain (protein, UniProt P15891 2-592, looked up) Actin-binding protein: ALEPIDYTTHSREIDAEYLKIVRGSDPDTTWLIISPNAKKEYEPESTGSSFHDFLQLFDETKVQYGLARVSPPGSDVEKIIIIGWCPDSAPLKTRASFAANFAAVANNLFKGYHVQVTARDEDDLDENELLMKISNAAGARYSIQTSSKQQGKASTPPVKKSFTPSKSPAPVSKKEPVKTPSPAPAAKISSRVNDNNDDDDWNEPELKERDFDQAPLKPNQSSYKPIGKIDLQKVIAEEKAKEDPRLVQKPTAAGSKIDPSSDIANLKNESKLKRDSEFNSFLGTTKPPSMTESSLKNDDDKVIKGFRNEKSPAQLWAERKAKQNSGNAETKAEAPKPEVPEDEPEGEPDVKDLKSKFEGLAASEKEEEEMENKFAPPPKKSEPTIISPKPFSKPQEPVKAEEAEQPKTDYKKIGNPLPGMHIEADNEEEPEENDDDWDDDEDEAAQPPLPSRNVASGAPVQKEEPEQEEIAPSLPSRNSIPAPKQEEAPEQAPEEEIEEEAEEAAPQLPSRSSAAPPPPPRRATPEKKPKENPWATAEYDYDAAEDNELTFVENDKIINIEFVDDDWWLGELEKDGSKGLFPSNYVSLGN","Protein-protein interaction distance between Abp1 SH3-swapped baits, to ABP1","Abp1 bait with swapped SH3, distance to bait with ABP1 SH3, sheet Fig2C",0.00
same,"Protein-protein interaction distance between Abp1 SH3-swapped baits, to BBC1","distance to Abp1 bait with BBC1 SH3, sheet Fig2C",7.08
same,"Protein-protein interaction distance between Abp1 SH3-swapped baits, to BEM1-1","distance to Abp1 bait with BEM1-1 SH3, sheet Fig2C",14.06
same,"Protein-protein interaction distance between Abp1 SH3-swapped baits, to BEM1-2","distance to Abp1 bait with BEM1-2 SH3, sheet Fig2C",32.3
same,"Protein-protein interaction distance between Abp1 SH3-swapped baits, to BOI1","distance to Abp1 bait with BOI1 SH3, sheet Fig2C",11.59
same,"Protein-protein interaction distance between Abp1 SH3-swapped baits, to BOI2","distance to Abp1 bait with BOI2 SH3, sheet Fig2C",14.52
same,"Protein-protein interaction distance between Abp1 SH3-swapped baits, to BUD14","distance to Abp1 bait with BUD14 SH3, sheet Fig2C",17.23
same,"Protein-protein interaction distance between Abp1 SH3-swapped baits, to BZZ1-1","distance to Abp1 bait with BZZ1-1 SH3, sheet Fig2C",9.504
same,"Protein-protein interaction distance between Abp1 SH3-swapped baits, to BZZ1-2","distance to Abp1 bait with BZZ1-2 SH3, sheet Fig2C",10.54
same,"Protein-protein interaction distance between Abp1 SH3-swapped baits, to CDC25","distance to Abp1 bait with CDC25 SH3, sheet Fig2C",26.13
same,"Protein-protein interaction distance between Abp1 SH3-swapped baits, to CTTN","distance to Abp1 bait with CTTN SH3, sheet Fig2C",9.394
same,"Protein-protein interaction distance between Abp1 SH3-swapped baits, to CYK3","distance to Abp1 bait with CYK3 SH3, sheet Fig2C",26.78
same,"Protein-protein interaction distance between Abp1 SH3-swapped baits, to DBNL","distance to Abp1 bait with DBNL SH3, sheet Fig2C",8.805
same,"Protein-protein interaction distance between Abp1 SH3-swapped baits, to FUS1","distance to Abp1 bait with FUS1 SH3, sheet Fig2C",18.44
same,"Protein-protein interaction distance between Abp1 SH3-swapped baits, to HCLS1","distance to Abp1 bait with HCLS1 SH3, sheet Fig2C",7.682
same,"Protein-protein interaction distance between Abp1 SH3-swapped baits, to HOF1","distance to Abp1 bait with HOF1 SH3, sheet Fig2C",30.98
same,"Protein-protein interaction distance between Abp1 SH3-swapped baits, to HSE1","distance to Abp1 bait with HSE1 SH3, sheet Fig2C",9.43
same,"Protein-protein interaction distance between Abp1 SH3-swapped baits, to LSB1","distance to Abp1 bait with LSB1 SH3, sheet Fig2C",13.24
same,"Protein-protein interaction distance between Abp1 SH3-swapped baits, to LSB3","distance to Abp1 bait with LSB3 SH3, sheet Fig2C",13.53
same,"Protein-protein interaction distance between Abp1 SH3-swapped baits, to MYO3","distance to Abp1 bait with MYO3 SH3, sheet Fig2C",12.85
same,"Protein-protein interaction distance between Abp1 SH3-swapped baits, to MYO5","distance to Abp1 bait with MYO5 SH3, sheet Fig2C",12.37
same,"Protein-protein interaction distance between Abp1 SH3-swapped baits, to NBP2","distance to Abp1 bait with NBP2 SH3, sheet Fig2C",16.16
same,"Protein-protein interaction distance between Abp1 SH3-swapped baits, to PEX13","distance to Abp1 bait with PEX13 SH3, sheet Fig2C",10.96
same,"Protein-protein interaction distance between Abp1 SH3-swapped baits, to PIN3","distance to Abp1 bait with PIN3 SH3, sheet Fig2C",11.43
same,"Protein-protein interaction distance between Abp1 SH3-swapped baits, to RVS167","distance to Abp1 bait with RVS167 SH3, sheet Fig2C",9.548
same,"Protein-protein interaction distance between Abp1 SH3-swapped baits, to SDC25","distance to Abp1 bait with SDC25 SH3, sheet Fig2C",33.14
same,"Protein-protein interaction distance between Abp1 SH3-swapped baits, to SHO1","distance to Abp1 bait with SHO1 SH3, sheet Fig2C",8.989
same,"Protein-protein interaction distance between Abp1 SH3-swapped baits, to SLA1-1","distance to Abp1 bait with SLA1-1 SH3, sheet Fig2C",28.73
same,"Protein-protein interaction distance between Abp1 SH3-swapped baits, to SLA1-2","distance to Abp1 bait with SLA1-2 SH3, sheet Fig2C",19.01
same,"Protein-protein interaction distance between Abp1 SH3-swapped baits, to SLA1-3","distance to Abp1 bait with SLA1-3 SH3, sheet Fig2C",13.16
same,"Protein-protein interaction distance between Abp1 SH3-swapped baits, to YSC84","distance to Abp1 bait with YSC84 SH3, sheet Fig2C",13.97
